Ten variants from IntAct's records for PubMed 31515488 can be followed below.

First the molecules themselves.
B1: Nanos homolog 2 (Homo sapiens), P60321 (parent)
chain: MQLPPFDMWKDYFNLSQVVWALIASRGQRLETQEIEEPSPGPPLGQDQGLGAPGANGGLGTLCNFCKHNGESRHVYSSHQLKTPDGVVVCPILRHYVCPVCGATGDQAHTLKYCPLNGGQQSLYRRSGRNSAGRRVKR
B2: Homeobox protein PKNOX1 (Homo sapiens), P55347 (parent)
chain: MMATQTLSIDSYQDGQQMQVVTELKTEQDPNCSEPDAEGVSPPPVESQTPMDVDKQAIYRHPLFPLLALLFEKCEQSTQGSEGTTSASFDVDIENFVRKQEKEGKPFFCEDPETDNLMVKAIQVLRIHLLELEKVNELCKDFCSRYIACLKTKMNSETLLSGEPGSPYSPVQSQQIQSAITGTISPQGIVVPASALQQGNVAMATVAGGTVYQPVTVVTPQGQVVTQTLSPGTIRIQNSQLQLQLNQDLSILHQDDGSSKNKRGVLPKHATNVMRSWLFQHIGHPYPTEDEKKQIAAQTNLTLLQVNNWFINARRRILQPMLDSSCSETPKTKKKTAQNRPVQRFWPDSIASGVAQPPPSELTMSEGAVVTITTPVNMNVDSLQSLSSDGATLAVQQVMMAGQSEDESVDSTEEDAGALAPAHISGLVLENSDSLQ
partner: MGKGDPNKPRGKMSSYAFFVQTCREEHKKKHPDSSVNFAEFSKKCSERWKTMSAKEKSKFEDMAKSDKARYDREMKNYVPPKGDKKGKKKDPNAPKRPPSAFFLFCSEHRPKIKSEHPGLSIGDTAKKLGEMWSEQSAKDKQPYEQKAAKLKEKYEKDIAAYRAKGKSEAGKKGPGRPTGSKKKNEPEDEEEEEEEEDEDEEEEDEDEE
B3: E3 ubiquitin-protein ligase MARCHF5 (Homo sapiens), Q9NX47 (parent)
chain: MPDQALQQMLDRSCWVCFATDEDDRTAEWVRPCRCRGSTKWVHQACLQRWVDEKQRGNSTARVACPQCNAEYLIVFPKLGPVVYVLDLADRLISKACPFAAAGIMVGSIYWTAVTYGAVTVMQVVGHKEGLDVMERADPLFLLIGLPTIPVMLILGKMIRWEDYVLRLWRKYSNKLQILNSIFPGIGCPVPRIPAEANPLADHVSATRILCGALVFPTIATIVGKLMFSSVNSNLQRTILGGIAFVAIKGAFKVYFKQQQYLRQAHRKILNYPEQEEA
partner: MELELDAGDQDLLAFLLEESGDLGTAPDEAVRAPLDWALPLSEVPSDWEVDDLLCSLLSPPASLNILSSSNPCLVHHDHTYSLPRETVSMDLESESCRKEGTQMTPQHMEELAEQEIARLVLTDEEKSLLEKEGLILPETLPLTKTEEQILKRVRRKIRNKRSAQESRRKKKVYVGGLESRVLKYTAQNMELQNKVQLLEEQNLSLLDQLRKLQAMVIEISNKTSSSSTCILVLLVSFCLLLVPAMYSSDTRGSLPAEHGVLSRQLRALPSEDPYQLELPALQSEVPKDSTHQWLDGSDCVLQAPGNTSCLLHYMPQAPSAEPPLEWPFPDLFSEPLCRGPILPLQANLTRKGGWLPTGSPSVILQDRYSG
B4: Notch homolog 2 N-terminal-like protein A (Homo sapiens), Q7Z3S9 (parent)
chain: MCVTYHNGTGYCKCPEGFLGEYCQHRDPCEKNRCQNGGTCVAQAMLGKATCRCASGFTGEDCQYSTSHPCFVSRPCLNGGTCHMLSRDTYECTCQVGFTGKECQWTDACLSHPCANGSTCTTVANQFSCKCLTGFTGQKCETDVNECDIPGHCQHGGTCLNLPGSYQCQCLQGFTGQYCDSLYVPCAPSPCVNGGTCRQTGDFTFECNCLPETVRRGTELWERDREVWNGKEHDEN
partner: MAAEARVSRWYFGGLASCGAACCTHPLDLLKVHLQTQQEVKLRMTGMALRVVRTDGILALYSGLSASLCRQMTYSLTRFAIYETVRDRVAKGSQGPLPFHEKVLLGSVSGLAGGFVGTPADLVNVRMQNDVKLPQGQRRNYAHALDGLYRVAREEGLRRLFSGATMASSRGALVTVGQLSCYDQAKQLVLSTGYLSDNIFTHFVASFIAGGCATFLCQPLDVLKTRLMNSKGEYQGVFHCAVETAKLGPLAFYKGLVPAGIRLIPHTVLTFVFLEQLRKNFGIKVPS
B5: Beta-taxilin (Homo sapiens), Q8N3L3 (parent)
chain: MEANHSEQLSAERQSTPPGDSSSLPSHNGLEKEDGQDSPTPVQPPEKEASVHPDISEELNRQLEDIINTYGSAASTAGKEGSARASEQPENAESPDNEDGDCEETTEEAGREPVASGEPPTVKEPVSNKEQKLEKKILKGLGKEANLLMQNLNKLQTPEEKFDFLFKKYAELLDEHRTEQKKLKLLQKKQVQIQKEKDQLQGEHSRAILARSKLESLCRELQRHNKTLKEEALQRAREEEEKRKEITSHFQSTLTDIQGQIEQQSERNMKLCQENTELAEKLKSIIDQYELREEHLDKIFKHRELQQKLVDAKLEQAQEMMKEAEERHKREKEYLLNQAAEWKLQAKVLKEQETVLQAQLTLYSGRFEEFQSTLTKSNEVFATFKQEMDKTTKKMKKLEKDTATWKARFENCNKALLDMIEEKALRAKEYECFVMKIGRLENLCRALQEERNELHKKIRDAEISEKDDQSQHNSDEEPESNVSVDQEIDAEEVNSVQTAVKNLATAFMIIHHPESTPHQSKETQPEIGSSQESADAALKEPEQPPLIPSRDSESPLPPLTPQAEAEGGSDAEPPSKASNSPAGLGAETQCEGLPVGAQADQASWKPEAEASGQAPQAPTEASLQKMEADVPAPACAAEEHVAAMVPACEPSRQPPRAAAEELPVGASAGPQPRNVADTNLEGVD
partner: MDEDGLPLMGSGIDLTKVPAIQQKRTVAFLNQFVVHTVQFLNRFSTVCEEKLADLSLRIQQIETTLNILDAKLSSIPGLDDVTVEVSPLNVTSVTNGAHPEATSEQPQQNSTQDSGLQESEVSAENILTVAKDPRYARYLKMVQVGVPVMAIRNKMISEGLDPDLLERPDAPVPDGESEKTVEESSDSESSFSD
B6: Phospholipase A and acyltransferase 4 (Homo sapiens), Q9UL19 (parent)
chain: MASPHQEPKPGDLIEIFRLGYEHWALYIGDGYVIHLAPPSEYPGAGSSSVFSVLSNSAEVKRERLEDVVGGCCYRVNNSLDHEYQPRPVEVIISSAKEMVGQKMKYSIVSRNCEHFVTQLRYGKSRCKQVEKAKVEVGVATALGILVVAGCSFAIRRYQKKATA
B7: Protein FAM9B (Homo sapiens), Q8IZU0 (parent)
chain: MAAWGKKHAGKDPVRDECEERNRFTETREEDVTDEHGEREPFAETDEHTGANTKKPEDTAEDLTAKRKRMKMDKTCSKTKNKSKHALRKKQLKRQKRDYIHSLKLLNVLEEYITDEQKEEEEEEGEEEELIRIFQEQQKKWQQYRSVRRERLKEMKLLRDQFVKALEDFEDLCDRVFSDEDSELDN
partner: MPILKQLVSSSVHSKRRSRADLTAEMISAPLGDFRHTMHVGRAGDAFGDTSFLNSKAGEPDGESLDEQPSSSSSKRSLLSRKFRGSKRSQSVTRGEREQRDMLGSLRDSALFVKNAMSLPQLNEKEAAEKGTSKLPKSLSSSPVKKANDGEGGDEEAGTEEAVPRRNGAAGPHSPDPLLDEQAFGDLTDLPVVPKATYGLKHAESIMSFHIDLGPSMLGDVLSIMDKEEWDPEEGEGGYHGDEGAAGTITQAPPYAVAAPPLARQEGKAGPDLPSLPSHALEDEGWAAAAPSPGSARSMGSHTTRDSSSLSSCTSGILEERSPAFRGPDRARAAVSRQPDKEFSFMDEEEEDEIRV
B8: Tetratricopeptide repeat protein 14 (Homo sapiens), Q96N46 (parent)
chain: MDRDLLRQSLNCHGSSLLSLLRSEQQDNPHFRSLLGSAAEPARGPPPQHPLQGRKEKRVDNIEIQKFISKKADLLFALSWKSDAPATSEINEDSEDHYAIMPPLEQFMEIPSMDRRELFFRDIERGDIVIGRISSIREFGFFMVLICLGSGIMRDIAHLEITALCPLRDVPSHSNHGDPLSYYQTGDIIRAGIKDIDRYHEKLAVSLYSSSLPPHLSGIKLGVISSEELPLYYRRSVELNSNSLESYENVMQSSLGFVNPGVVEFLLEKLGIDESNPPSLMRGLQSKNFSEDDFASALRKKQSASWALKCVKIGVDYFKVGRHVDAMNEYNKALEIDKQNVEALVARGALYATKGSLNKAIEDFELALENCPTHRNARKYLCQTLVERGGQLEEEEKFLNAESYYKKALALDETFKDAEDALQKLHKYMQKSLELREKQAEKEEKQKTKKIETSAEKLRKLLKEEKRLKKKRRKSTSSSSVSSADESVSSSSSSSSSGHKRHKKHKRNRSESSRSSRRHSSRASSNQIDQNRKDECYPVPANTSASFLNHKQEVEKLLGKQDRLQYEKTQIKEKDRCPLSSSSLEIPDDFGGRSEDPRDFYNSYKTQAGSSKTEKPYKSERHFSSRRNSSDSFCRNSEDKIYGYRRFEKDIEGRKEHYRRWEPGSVRHSTSPASSEYSWKSVEKYKKYAHSGSRDFSRHEQRYRLNTNQGEYEREDNYGEDIKTEVPEEDALSSKEHSESSVKKNLPQNLLNIFNQIAEFEKEKGNKSKN

The first experiment covers variants of B1. To be noted: with magac_human MAGEA12, P43365.
Chain of magac_human MAGEA12, P43365 (P43365 whole entry): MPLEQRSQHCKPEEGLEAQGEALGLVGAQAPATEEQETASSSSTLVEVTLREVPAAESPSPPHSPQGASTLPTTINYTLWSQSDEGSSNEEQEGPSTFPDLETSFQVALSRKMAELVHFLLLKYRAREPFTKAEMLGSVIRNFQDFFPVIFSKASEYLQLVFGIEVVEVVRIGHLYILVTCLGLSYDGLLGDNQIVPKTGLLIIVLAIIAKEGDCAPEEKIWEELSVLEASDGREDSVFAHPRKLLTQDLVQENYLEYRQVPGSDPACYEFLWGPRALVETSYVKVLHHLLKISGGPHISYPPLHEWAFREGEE
In the case of R73C, the “effect of a mutation on the interaction” value was “with no effect”.

In the next experiment the parent is B1. The conditions noted are these: with ccdb1_human CCNDBP1, O95273.
Chain of ccdb1_human CCNDBP1, O95273 (O95273 whole entry): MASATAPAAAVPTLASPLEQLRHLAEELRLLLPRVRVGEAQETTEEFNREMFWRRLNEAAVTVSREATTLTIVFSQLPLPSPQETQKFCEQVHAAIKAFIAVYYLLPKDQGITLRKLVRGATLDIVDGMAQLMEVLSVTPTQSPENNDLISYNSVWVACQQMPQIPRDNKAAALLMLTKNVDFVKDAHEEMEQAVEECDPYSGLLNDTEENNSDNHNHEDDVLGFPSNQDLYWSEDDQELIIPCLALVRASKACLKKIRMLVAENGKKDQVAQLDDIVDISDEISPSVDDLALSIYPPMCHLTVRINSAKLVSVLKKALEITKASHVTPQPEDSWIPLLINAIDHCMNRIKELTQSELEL
Regarding R73C, the “effect of a mutation on the interaction” value is given as “with no effect”.

Another experiment covers variants of B2. The conditions noted are these: with hmgb2_human HMGB2, P26583.
As to E103D, the “effect of a mutation on the interaction” value is reported as “with no effect”.

For V265I, the “effect of a mutation on the interaction” value was “with no effect”.

Variants of B2 are the subject of another experiment. The conditions noted are these: with hmgb2_human HMGB2, P26583. This is another data set of the same source.
As for V265I, the “effect of a mutation on the interaction” value was “with no effect”.

Variants of B3 are the subject of the next experiment. The conditions noted are these: with creb3_human CREB3, O43889.
Take D202N: the “effect of a mutation on the interaction” value is on record as “with no effect”.

In a further experiment the parent is B4. The conditions noted are these: with dic_human SLC25A10, Q9UBX3.
With A115T, the “effect of a mutation on the interaction” value was “with no effect”.

In the case of R74Q, the “effect of a mutation on the interaction” value is given as “with no effect”.

Variants of B5 are the subject of the next experiment. To be noted: with wasc3_human WASHC3, Q9Y3C0.
Consider I527T, for which the “effect of a mutation on the interaction” value was “with no effect”.

Variants of B6 are the subject of the next experiment. The conditions noted are these: with sgta_human SGTA.
As for T141M, the “effect of a mutation on the interaction” value is on record as “disrupting interaction strength”.

The variants in the next experiment derive from B7. The conditions noted are these: with borg4_human CDC42EP4, Q9H3Q1.
Regarding R23H, the “effect of a mutation on the interaction” value is listed as “with no effect”.

Variants of B8 are the subject of another experiment. The conditions noted are these: with cep70_human CEP70, Q8NHQ1.
Chain of cep70_human CEP70, Q8NHQ1 (Q8NHQ1 whole entry): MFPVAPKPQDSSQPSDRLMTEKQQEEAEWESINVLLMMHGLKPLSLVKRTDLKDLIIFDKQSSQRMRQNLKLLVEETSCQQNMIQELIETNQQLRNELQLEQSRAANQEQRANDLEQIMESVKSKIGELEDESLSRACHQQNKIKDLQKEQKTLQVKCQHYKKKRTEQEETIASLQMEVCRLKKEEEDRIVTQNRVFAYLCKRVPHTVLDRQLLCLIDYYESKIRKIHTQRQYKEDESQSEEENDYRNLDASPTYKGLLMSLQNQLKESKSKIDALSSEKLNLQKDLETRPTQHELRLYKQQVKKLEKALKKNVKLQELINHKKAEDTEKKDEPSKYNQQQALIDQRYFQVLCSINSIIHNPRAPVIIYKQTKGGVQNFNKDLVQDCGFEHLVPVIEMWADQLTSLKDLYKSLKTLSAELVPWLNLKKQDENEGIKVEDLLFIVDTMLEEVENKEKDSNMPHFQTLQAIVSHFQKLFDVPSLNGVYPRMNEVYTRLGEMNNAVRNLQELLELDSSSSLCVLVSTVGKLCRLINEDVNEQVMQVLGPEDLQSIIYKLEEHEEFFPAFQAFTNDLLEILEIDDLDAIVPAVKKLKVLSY
As to S697G, the “effect of a mutation on the interaction” value is reported as “with no effect”.
